Earlier results on one substance are cited in PMC7809386.

Read-outs that look alike come from different tables or passages of the source.

Series [1] deals with SecA (Escherichia coli) (UniProt P10408).
For series [2] the target is unchanged. The source holds these as a separate data set.

For SecA (from UniProt P10408), the dissociation constant Kd is 0.74 nM in the series with SecA (Escherichia coli) [1] and 100 nM with SecA (Escherichia coli) [2].

A word on the Kd: it is the constant that tells how readily two partners part at equilibrium.
